{"source": "patent US20160168251A1", "about": "(MorphoSys, published 2016)", "key": {"[1]": {"molecular_target": "T1, human NPRA on HEK293 cells bound to ANP (human, UniProt P01160 124-151)", "T1 sequence": "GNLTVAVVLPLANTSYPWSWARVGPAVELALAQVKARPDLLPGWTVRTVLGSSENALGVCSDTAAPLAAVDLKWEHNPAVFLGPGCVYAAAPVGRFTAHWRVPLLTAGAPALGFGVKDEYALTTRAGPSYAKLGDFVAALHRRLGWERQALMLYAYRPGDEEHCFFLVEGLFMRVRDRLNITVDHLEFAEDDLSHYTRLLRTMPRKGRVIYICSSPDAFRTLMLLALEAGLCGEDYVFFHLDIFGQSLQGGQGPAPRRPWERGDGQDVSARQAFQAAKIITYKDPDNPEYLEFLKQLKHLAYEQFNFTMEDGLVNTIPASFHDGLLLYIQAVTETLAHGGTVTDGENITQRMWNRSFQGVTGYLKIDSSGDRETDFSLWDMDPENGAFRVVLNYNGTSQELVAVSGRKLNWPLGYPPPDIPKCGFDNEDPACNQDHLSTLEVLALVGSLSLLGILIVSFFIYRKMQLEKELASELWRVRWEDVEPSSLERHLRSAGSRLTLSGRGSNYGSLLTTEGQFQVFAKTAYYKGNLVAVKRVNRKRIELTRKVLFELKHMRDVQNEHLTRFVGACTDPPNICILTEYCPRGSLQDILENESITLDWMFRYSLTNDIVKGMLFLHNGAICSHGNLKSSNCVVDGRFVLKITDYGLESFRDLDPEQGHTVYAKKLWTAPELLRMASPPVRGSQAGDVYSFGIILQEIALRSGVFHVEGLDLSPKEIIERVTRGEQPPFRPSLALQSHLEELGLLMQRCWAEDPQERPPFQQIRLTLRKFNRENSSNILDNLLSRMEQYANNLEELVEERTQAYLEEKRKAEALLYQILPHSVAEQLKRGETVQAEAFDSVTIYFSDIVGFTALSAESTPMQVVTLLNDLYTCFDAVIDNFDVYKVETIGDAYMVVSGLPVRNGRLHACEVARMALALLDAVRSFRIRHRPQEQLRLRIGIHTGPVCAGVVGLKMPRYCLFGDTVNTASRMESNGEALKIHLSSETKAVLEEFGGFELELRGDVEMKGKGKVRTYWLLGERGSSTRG", "T1 sequence (peptide)": "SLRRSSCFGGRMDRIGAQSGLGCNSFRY", "experiment": "cell-based or functional assay"}, "[2]": {"molecular_target": "T2, human NPRA on HEK293 cells bound to BNP (human, UniProt P16860 103-134)", "T2 sequence": "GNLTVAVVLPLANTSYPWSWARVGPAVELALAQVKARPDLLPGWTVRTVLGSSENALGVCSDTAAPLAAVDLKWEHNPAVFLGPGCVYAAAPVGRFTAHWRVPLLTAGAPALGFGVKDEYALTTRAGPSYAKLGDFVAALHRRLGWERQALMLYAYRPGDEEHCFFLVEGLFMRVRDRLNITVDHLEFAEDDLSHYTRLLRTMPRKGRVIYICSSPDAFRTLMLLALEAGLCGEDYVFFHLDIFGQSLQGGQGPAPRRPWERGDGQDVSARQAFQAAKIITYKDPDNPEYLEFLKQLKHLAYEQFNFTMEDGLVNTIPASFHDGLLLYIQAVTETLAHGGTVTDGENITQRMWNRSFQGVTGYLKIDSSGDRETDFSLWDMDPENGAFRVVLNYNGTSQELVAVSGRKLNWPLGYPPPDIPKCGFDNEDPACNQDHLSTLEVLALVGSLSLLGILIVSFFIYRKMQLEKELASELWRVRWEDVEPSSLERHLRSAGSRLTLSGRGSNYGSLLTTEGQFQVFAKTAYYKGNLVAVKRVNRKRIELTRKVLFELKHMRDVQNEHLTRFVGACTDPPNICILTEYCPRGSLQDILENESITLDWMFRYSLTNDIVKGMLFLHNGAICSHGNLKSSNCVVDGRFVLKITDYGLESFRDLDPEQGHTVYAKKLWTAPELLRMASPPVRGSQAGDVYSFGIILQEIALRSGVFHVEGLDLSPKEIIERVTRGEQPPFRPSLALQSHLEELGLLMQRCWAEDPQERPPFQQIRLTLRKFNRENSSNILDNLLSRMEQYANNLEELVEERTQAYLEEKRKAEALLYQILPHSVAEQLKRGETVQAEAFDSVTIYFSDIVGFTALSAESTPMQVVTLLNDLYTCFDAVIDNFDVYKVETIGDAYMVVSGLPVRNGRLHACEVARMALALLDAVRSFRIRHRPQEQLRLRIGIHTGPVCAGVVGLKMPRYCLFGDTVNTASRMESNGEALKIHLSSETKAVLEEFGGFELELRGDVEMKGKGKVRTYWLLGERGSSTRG", "T2 sequence (peptide)": "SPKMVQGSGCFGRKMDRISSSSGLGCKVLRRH", "experiment": "cell-based or functional assay"}, "[3]": {"molecular_target": "T1, human NPRA on HEK293 cells bound to ANP", "experiment": "FACS, HEK NPRA cells with ANP"}, "[4]": {"molecular_target": "T3, human NPRA on HEK293 cells, without added ligand (human, UniProt P16066 33-1061)", "T3 construct": "a signal peptide is not delimited; also called HEK NPRA cells; HEK hNPRA cells", "T3 sequence": "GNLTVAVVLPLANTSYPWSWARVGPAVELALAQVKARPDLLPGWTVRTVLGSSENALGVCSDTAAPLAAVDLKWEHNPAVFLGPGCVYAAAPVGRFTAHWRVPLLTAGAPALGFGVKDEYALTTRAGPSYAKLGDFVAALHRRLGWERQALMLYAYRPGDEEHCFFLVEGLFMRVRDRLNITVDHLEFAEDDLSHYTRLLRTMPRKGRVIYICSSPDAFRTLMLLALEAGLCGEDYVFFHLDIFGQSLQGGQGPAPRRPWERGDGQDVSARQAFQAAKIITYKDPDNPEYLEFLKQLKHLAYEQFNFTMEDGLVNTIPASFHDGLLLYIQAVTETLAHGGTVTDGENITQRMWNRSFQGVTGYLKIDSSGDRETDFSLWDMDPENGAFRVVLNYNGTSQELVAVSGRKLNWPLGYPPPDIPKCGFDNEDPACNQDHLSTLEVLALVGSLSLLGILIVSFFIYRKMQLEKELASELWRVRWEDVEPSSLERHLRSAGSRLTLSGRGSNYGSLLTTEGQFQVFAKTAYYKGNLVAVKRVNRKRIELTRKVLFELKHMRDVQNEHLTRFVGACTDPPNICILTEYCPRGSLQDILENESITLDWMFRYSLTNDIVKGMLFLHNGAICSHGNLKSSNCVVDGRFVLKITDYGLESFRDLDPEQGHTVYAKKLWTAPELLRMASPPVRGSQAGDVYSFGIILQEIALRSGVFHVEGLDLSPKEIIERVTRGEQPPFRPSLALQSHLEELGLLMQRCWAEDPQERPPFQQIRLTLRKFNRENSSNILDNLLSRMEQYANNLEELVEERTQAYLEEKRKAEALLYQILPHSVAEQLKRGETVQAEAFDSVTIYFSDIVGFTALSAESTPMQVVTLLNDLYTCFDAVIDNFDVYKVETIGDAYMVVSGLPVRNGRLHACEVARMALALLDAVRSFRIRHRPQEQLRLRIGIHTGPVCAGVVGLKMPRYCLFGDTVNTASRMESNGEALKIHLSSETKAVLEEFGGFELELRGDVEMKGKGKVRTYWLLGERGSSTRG", "experiment": "FACS, HEK NPRA cells without ligand"}, "[5]": {"molecular_target": "T1, human NPRA on HEK293 cells bound to ANP", "experiment": "FACS titration on ANP bound HEK NPRA cells; ANP bound HEK NPRA cells"}, "[6]": {"molecular_target": "T2, human NPRA on HEK293 cells bound to BNP", "experiment": "FACS titration on BNP bound HEK NPRA cells; BNP bound HEK NPRA cells"}, "[7]": {"molecular_target": "T4, atrial natriuretic peptide (ANP), free (UniProt P01160 124-151, 125I label in the radioligand assays of Example 10)", "T4 construct": "mature; also called free ANP", "T4 peptide (looked up)": "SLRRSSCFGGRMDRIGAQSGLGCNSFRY", "experiment": "FACS competition: Fab pre-incubated with free ANP, then HEK NPRA cells loaded with 100 nM ANP"}}, "data": [{"binder": "5064 Fab (Fab, V domains shown) VH: QVQLQQSGPGLVKPSQTLSLTCAISGDSVSSRSASWSWIRQSPGRGLEWLGRIYYRSKWYNDYAVSVKSRITINPDTSKNQFSLQLNSVTPEDTAVYYCARMDVPSFRYFDVWGQGTLVTVSS VL: not shown", "values": [{"measurement": "EC50 of ANP, cGMP production in HEK NPRA cells, with 400 nM Fab", "setting": "[1]", "value": 1, "unit": "nM"}, {"measurement": "fold decrease of the EC50 of BNP (cGMP, 400 nM Fab)", "setting": "[2]", "value": 2, "unit": "fold"}, {"measurement": "EC50 (read off the curve)", "setting": "[3]", "value": "~100", "unit": "nM"}, {"measurement": "binding result", "setting": "[4]", "value": "no binding (tested: 20 µg/ml)"}, {"measurement": "EC50", "setting": "[5]", "value": "≥ 100", "unit": "nM"}, {"measurement": "EC50", "setting": "[6]", "value": "≥ 300", "unit": "nM"}, {"measurement": "binding result", "setting": "[7]", "value": "no binding (tested: 10000 nM)"}]}]}
